B1: Arabidopsis thaliana Delta-1-pyrroline-5-carboxylate synthase 2 (atP5CS2), wild type (enzyme, UniProt P54888 1-726, looked up)
chain: MTEIDRSRAFAKDVKRIVVKVGTAVVTGKGGRLALGRLGAICEQLAELNSDGFEVILVSSGAVGLGRQRLRYRQLVNSSFADLQKPQMELDGKACAGVGQSSLMAYYETMFDQLDVTVAQMLVTDSSFRDKDFRKQLSETVKAMLRMRVIPVFNENDAISTRRAPYKDSTGIFWDNDSLAALLSLELKADLLILLSDVEGLYTGPPSDSTSKLIHTFIKEKHQDEITFGEKSKLGRGGMTAKVKAAVNAAYGGVPVIITSGYAAENISKVLRGLRVGTLFHQDAHLWAPVVDTTSRDMAVAARESSRKLQALSSEDRKQILHDIANALEVNEKTIKAENDLDVAAAQEAGYEESLVARLVMKPGKISSLAASVRQLAEMEDPIGRVLKKTQVADDLILEKTSSPIGVLLIVFESRPDALVQIASLAIRSGNGLLLKGGKEARRSNAILHKVITDAIPETVGGKLIGLVTSREEIPDLLKLDDVIDLVIPRGSNKLVSQIKNSTKIPVLGHADGICHVYVDKSGKLDMAKRIVSDAKLDYPAACNAMETLLVHKDLEQNGFLDDLIYVLQTKGVTLYGGPRASAKLNIPETKSFHHEYSSKACTVEIVEDVYGAIDHIHQHGSAHTDCIVTEDSEVAEIFLRQVDSAAVFHNASTRFSDGFRFGLGAEVGISTSRIHARGPVGVEGLLTTRWIMRGKGQVVDGDNGIVYTHKDLPVLQRTEAVENGI
B2: truncated atP5CS2 protein consisting of residues 1-290 (atP5CS2-GK) (domain or fragment, Arabidopsis thaliana, UniProt P54888 1-290, looked up)
chain: MTEIDRSRAFAKDVKRIVVKVGTAVVTGKGGRLALGRLGAICEQLAELNSDGFEVILVSSGAVGLGRQRLRYRQLVNSSFADLQKPQMELDGKACAGVGQSSLMAYYETMFDQLDVTVAQMLVTDSSFRDKDFRKQLSETVKAMLRMRVIPVFNENDAISTRRAPYKDSTGIFWDNDSLAALLSLELKADLLILLSDVEGLYTGPPSDSTSKLIHTFIKEKHQDEITFGEKSKLGRGGMTAKVKAAVNAAYGGVPVIITSGYAAENISKVLRGLRVGTLFHQDAHLWAPV

Tests used:
cryo-EM structure = molecular target: the molecule itself; assay: cryo-EM structure
negative-stain EM = molecular target: the molecule itself; assay: negative-stain EM

Protein	stoichiometry N (cryo-EM structure)	binding result (negative-stain EM)
B1	4	
B2		binds

From article doi:10.1101/2023.09.07.556688 (bioRxiv, 2023)
